Results published in US20210253718A1, “FRIZZLED5 PROTEIN-BINDING AGENTS” (Modmab Therapeutics Corporation, priority 2016, published 2021).
Where a chain is given by its changes, count along the chain named.

T1: FZD10 CRD (Homo sapiens, UniProt Q9ULW2)
T1 construct: 30-156; GPI anchor signal (C); expressed in transfected cells; host or cells: CHO cells, lentiviral pLenti-puro
T1 sequence (Q9ULW2 30-156): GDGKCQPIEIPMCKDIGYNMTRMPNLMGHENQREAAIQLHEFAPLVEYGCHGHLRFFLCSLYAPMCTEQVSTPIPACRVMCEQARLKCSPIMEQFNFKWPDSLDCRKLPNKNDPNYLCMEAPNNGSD

T2: FZD8 CRD (Homo sapiens, UniProt Q9H461)
T2 construct: K31-D155; GPI anchor signal (C); expressed in transfected cells; host or cells: CHO cells, lentiviral pLenti-puro
T2 sequence (Q9H461 31-155): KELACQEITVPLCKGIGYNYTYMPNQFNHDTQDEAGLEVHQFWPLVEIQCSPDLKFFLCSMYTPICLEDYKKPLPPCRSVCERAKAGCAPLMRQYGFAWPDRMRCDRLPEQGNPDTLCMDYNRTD

T3: FZD9 CRD (Homo sapiens, UniProt O00144)
T3 construct: G35-A161; GPI anchor signal (C); expressed in transfected cells; host or cells: CHO cells, lentiviral pLenti-puro
T3 sequence (O00144 35-161): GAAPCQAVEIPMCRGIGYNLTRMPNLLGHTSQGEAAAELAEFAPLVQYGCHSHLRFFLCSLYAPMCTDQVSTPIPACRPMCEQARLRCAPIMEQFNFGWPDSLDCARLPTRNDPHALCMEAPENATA

B1: Fab-2900: anti-FZD5 Fab with antibody variable region Fv-2900; CDR SEQ ID NOs: 35, 36, 39, 78, 115, 153 (antibody, V domains shown)
VH: EVQLVESGGGLVQPGGSLRLSCAASGFNLSSYYIHWVRQAPGKGLEWVASISSSSSSTSYADSVKGRFTISADTSKNTAYLQMNSLRAEDTAVYYCARGALDYWGQGTLVTVSS
VL: DIQMTQSPSSLSASVGDRVTITCRASQSVSSAVAWYQQKPGKAPKLLIYSASSLYSGVPSRFSGSRSGTDFTLTISSLQPEDFATYYCQQWYSGSSLFTFGQGTKVEIK
B2: Fab-2935: anti-FZD5 Fab with antibody variable region Fv-2935; CDR SEQ ID NOs: 35, 36, 74, 111, 150, 178 (antibody, V domains shown)
VH: B1 VH with L29I, S30Y, S31Y, S52Y, S53P, S56G, G99A, L101F
VL: B1 VL with S93G, S95Y, S96A, F98I
B3: Fab-2936: anti-FZD5 Fab with antibody variable region Fv-2936; CDR SEQ ID NOs: 35, 36, 75, 112, 151, 179 (antibody, V domains shown)
VH: B1 VH with L29I, S31Y, I34M, S52Y, S56G, G99A, L101M
VL: DIQMTQSPSSLSASVGDRVTITCRASQSVSSAVAWYQQKPGKAPKLLIYSASSLYSGVPSRFSGSRSGTDFTLTISSLQPEDFATYYCQQWYAASLITFGQGTKVEIK
B4: Fab-2925: anti-FZD5 Fab with antibody variable region Fv-2925; CDR SEQ ID NOs: 35, 36, 64, 102, 140, 172 (antibody, V domains shown)
VH: EVQLVESGGGLVQPGGSLRLSCAASGFNLSYSSMHWVRQAPGKGLEWVASIYPSYGSTYYADSVKGRFTISADTSKNTAYLQMNSLRAEDTAVYYCARYGYFGLDYWGQGTLVTVSS
VL: B1 VL with W91A, Y92W, S93V, G94Y, S95A
B5: Fab-2907: anti-FZD5 Fab with antibody variable region Fv-2907; CDR SEQ ID NOs: 35, 36, 46, 85, 122, 159 (antibody, V domains shown)
VH: EVQLVESGGGLVQPGGSLRLSCAASGFNIYSSYMHWVRQAPGKGLEWVASISSYSGSTYYADSVKGRFTISADTSKNTAYLQMNSLRAEDTAVYYCARSSWGAYIVSYGFDYWGQGTLVTVSS
VL: B1 VL with W91V, Y92G, S93Y, G94W, S95W, S96G, F98I
B6: Fab-2905: anti-FZD5 Fab with antibody variable region Fv-2905; CDR SEQ ID NOs: 35, 36, 44, 83, 120, 157 (antibody, V domains shown)
VH: EVQLVESGGGLVQPGGSLRLSCAASGFNLSYYYMHWVRQAPGKGLEWVASIYSSYSYTSYADSVKGRFTISADTSKNTAYLQMNSLRAEDTAVYYCARSGYALDYWGQGTLVTVSS
VL: DIQMTQSPSSLSASVGDRVTITCRASQSVSSAVAWYQQKPGKAPKLLIYSASSLYSGVPSRFSGSRSGTDFTLTISSLQPEDFATYYCQQSSWYYGYPFTFGQGTKVEIK

Legend:
[1] = molecular target: T4, FZD1 CRD (Homo sapiens, UniProt Q9UP38); experiment: Flow cytometry of anti-FZD5 Fab binding to CHO cells overexpressing Frizzled CRD
T4 construct: D112-P238; GPI anchor signal (C); expressed in transfected cells; host or cells: CHO cells, lentiviral pLenti-puro
Description: Plasmids: pLCKO lentiviral vector used for knockout (TKO) library construction and expression of individual gRNAs was constructed as described previously (Hart et al., 2015). Briefly, single guide RNA (sgRNA) scaffold was amplified from px330 (Addgene 42230) and cloned into pLKO.TRC005 lentiviral vector (Broad Institute, Cambridge, Mass.) using AgeI/EcoRI restriction sites. BfuAI sites were added at the 5′ end of the sgRNA scaffold for cloning the TKO library or individual gRNA target sequences. Lenti Cas9-2A-BsdR vector used to generate Cas9 stable expression cell lines was constructed as described previously (Hart et al., 2015). Briefly, lentiCRISPR pXPR_001 (Addgene 49535) was modified through removal of the sgRNA scaffold region through NdeI/EcoRI digest and blunt ends generation using Large Klenow Fragment (NEB). 2A-puro was replaced with 2A-BsdR by PCR using the NheI/MluI sites. Each of the 10 human Frizzled cysteine rich domains (CRDs) were cloned into the lentiviral expression plasmid pLenti-puro in the following cassette: FZD_CRD-MYC-GPI.
Flow cytometry: Primary staining of cells was performed by treatment with 200 nM Frizzled profiler Fab. Alexa Fluor 488 AffiniPure F(ab′)2 was used as the secondary antibody (Jackson ImmunoResearch #109-546-097). c-Myc (9E10) IgG1 (primary antibody, Santa Cruz, lot #D0306) and Alexa Fluor 488 IgG (secondary antibody, Life technologies, lot #1458649) were used as controls. Dead cells were excluded by staining with Fixable Viability Dye eFluor 660 (eBioscience, catalogue number 65-0864). All reagents were used as per manufacturer's instructions. Flow cytometry was performed on a BD FACSCanto II flow cytometer (BD Biosciences), and data were analyzed with FlowJo software (FlowJo, LLC).
To confirm that the FZD5-WNT7B circuit is not driven simply by expression and rule out the possibility of a disconnect between RNA and protein levels for the Wnt receptors in HPAF-II cells, a panel of recombinant Fabs were generated, alternatively referred to herein as ‘Frizzled profiler’, that can detect and discriminate all but one of the ten Frizzled receptors. […] To characterize the binding specificity of these Fabs on cells, a panel of 10 CHO cell lines was generated, each expressing the CRD domain of a different myc-tagged Frizzled family member anchored at the plasma membrane through a GPI anchor (CHO-myc-FZDGPI). Despite the high sequence identity between Frizzled family members (FIG. 7A, FIG. 7B), selective Fabs were identified for FZD4, FZD5, FZD6 and FZD10 as assessed by immunofluorescence and flow cytometry (FIG. 7D and FIG. 8). […] The FZD8 CRD is most homologous to that of FZD5 (FIG. 7B). These Fabs can be used to discriminate expression of FZD1, FZD2, FZD4, FZD5, FZD6, FZD7, FZD8, FZD9 and FZD10 (FIG. 7D and FIG. 8). The ‘Frizzled profiler’ therefore consists of 10 different Fabs that can be used to discriminate expression of 9 different Frizzled family members. The Frizzled profiler was then used to confirm that HPAF-II cells express FZD1, FZD5, FZD6 and possibly FZD8 (FIG. 7E).
(§1) The binding of anti-FZD5 Fabs to cell surface-expressed Frizzled protein was further determined for each member of the Frizzled family via flow cytometry and immunofluorescence analysis of a panel of 10 CHO cell lines, each ectopically over-expressing the extracellular cysteine-rich domain (CRD) of a different Frizzled protein family member.

[2] = molecular target: T1, FZD10 CRD; experiment: Immunofluorescence of anti-FZD5 Fab binding to CHO cells overexpressing Frizzled CRD; set-up: key: −: no binding; +: very weak binder; ++: weak binder; +++: good binder; ++++: very good binder
Summary of the method: (§2)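 Using immunofluorescence plus flow cytometry, we examine Fab binding to surface CRDs of individual Frizzled receptors, each expressed on CHO cells as a myc-GPI fusion from a lentiviral vector.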

[3] = molecular target: T5, FZD2 CRD (Homo sapiens, UniProt Q14332); experiment: as above; set-up: key: −: no binding; +: very weak binder; ++: weak binder; +++: good binder; ++++: very good binder
T5 construct: D35-P161; GPI anchor signal (C); expressed in transfected cells; host or cells: CHO cells, lentiviral pLenti-puro
Summary of the method: as §2

[4] = molecular target: T6, FZD7 CRD (Homo sapiens, UniProt O75084); experiment: as above; set-up: key: −: no binding; +: very weak binder; ++: weak binder; +++: good binder; ++++: very good binder
T6 construct: D45-S169; GPI anchor signal (C); expressed in transfected cells; host or cells: CHO cells, lentiviral pLenti-puro
Summary of the method: as §2

[5] = molecular target: T2, FZD8 CRD; experiment: as above; set-up: key: −: no binding; +: very weak binder; ++: weak binder; +++: good binder; ++++: very good binder
Summary of the method: as §2

[6] = molecular target: T3, FZD9 CRD; experiment: as above; set-up: key: −: no binding; +: very weak binder; ++: weak binder; +++: good binder; ++++: very good binder
Summary of the method: as §2

[7] = system: CHO cells not expressing Frizzled CRD; experiment: Flow cytometry of anti-FZD5 Fab binding to CHO cells not expressing Frizzled CRD (background)
Text: as §1

[8] = system: PATU8988S cells; experiment: Effect of anti-FZD5 Fabs on proliferation of pancreatic cancer cell lines (percent growth inhibition); type: cell-based, human; details: Fab 2 μg/ml

Molecule | Median fluorescence, Frizzled CRD overexpressed on CHO cells: FZD1 [1] | Immunofluorescence binding, Frizzled CRD overexpressed on CHO cells: FZD10 [2] | Immunofluorescence binding, Frizzled CRD overexpressed on CHO cells: FZD2 [3] | Immunofluorescence binding, Frizzled CRD overexpressed on CHO cells: FZD7 [4] | Immunofluorescence binding, Frizzled CRD overexpressed on CHO cells: FZD8 [5] | Immunofluorescence binding, Frizzled CRD overexpressed on CHO cells: FZD9 [6] | Median fluorescence, Frizzled CRD overexpressed on CHO cells: None [7] | percent growth inhibition, PATU8988s 2 μg/ml [8]
B1 | 31.06 | − | − | + | + | − | 3.4 | −29.28%
B2 |  | − | − | − | + | − | 3.46 | 2.48%
B3 |  | − | − | − | + | − | 2.81 | −8.03%
B4 | 19.46 | − |  | ++ | − | − | 3.55 | −8.12%
B5 | 3.28 | − | − | + | + | − | 3.43 | −12.76%
B6 | 3.75 | − | − | + | − | − | 3.62 | −26.66%
